Measured values: article PMC8567202, “Phosphoinositide-binding activity of Smad2 is essential for its function in TGF-β signaling” (The Journal of Biological Chemistry, 2021)
Changes are numbered by the printed parent chain. In names and notes the source's numbering stands.

B1: Smad2-W422A: W422A mutant of full-length Smad2; specific PI(4,5)P2 binding-compromised (protein)
chain: MSSILPFTPPVVKRLLGWKKSAGGSGGAGGGEQNGQEEKWCEKAVKSLVKKLKKTGRLDELEKAITTQNCNTKCVTIPSTCSEIWGLSTANTVDQWDTTGLYSFSEQTRSLDGRLQVSHRKGLPHVIYCRLWRWPDLHSHHELKAIENCEYAFNLKKDEVCVNPYHYQRVETPVLPPVLVPRHTEILTELPPLDDYTHSIPENTNFPAGIEPQSNYIPETPPPGYISEDGETSDQQLNQSMDTGSPAELSPTTLSPVNHSLDLQPVTYSEPAFWCSIAYYELNQRVGETFHASQPSLTVDGFTDPSNSERFCLGLLSNVNRNATVEMTRRHIGRGVRLYYIGGEVFAECLSDSAIFVQSPNCNQRYGWHPATVCKIPPGCNLKIFNNQEFAALLAQSVNQGFEAVYQLTRMCTIRMSFVKGAGAEYRRQTVTSTPCWIELHLNGPLQWLDKVLTQMGSPSVRCSSMS
modifications: left off: His6, N-terminal, state not stated
B2: Smad2 WT: bacterially expressed full-length Smad2 wild-type (protein)
chain: B1 chain with A422W
modifications: left off: His6, N-terminal, state not stated
notes: bacterially expressed full-length Smad2 wild-type
B3: Smad2-K420A: K420A mutant of full-length Smad2; predominantly TβRI binding-compromised (protein)
chain: B1 chain with K420A, A422W
modifications: left off: His6, N-terminal, state not stated
B4: EGFP-Smad2 WT: mouse EGFP-Smad2 wild type transfected into HeLa cells (protein, UniProt Q62432 2-467, looked up)
Mothers against …: SSILPFTPPVVKRLLGWKKSAGGSGGAGGGEQNGQEEKWCEKAVKSLVKKLKKTGRLDELEKAITTQNCNTKCVTIPSTCSEIWGLSTANTVDQWDTTGLYSFSEQTRSLDGRLQVSHRKGLPHVIYCRLWRWPDLHSHHELKAIENCEYAFNLKKDEVCVNPYHYQRVETPVLPPVLVPRHTEILTELPPLDDYTHSIPENTNFPAGIEPQSNYIPETPPPGYISEDGETSDQQLNQSMDTGSPAELSPTTLSPVNHSLDLQPVTYSEPAFWCSIAYYELNQRVGETFHASQPSLTVDGFTDPSNSERFCLGLLSNVNRNATVEMTRRHIGRGVRLYYIGGEVFAECLSDSAIFVQSPNCNQRYGWHPATVCKIPPGCNLKIFNNQEFAALLAQSVNQGFEAVYQLTRMCTIRMSFVKGWGAEYRRQTVTSTPCWIELHLNGPLQWLDKVLTQMGSPSVRCSSMS
modifications: EGFP fusion
notes: mouse EGFP-Smad2 wild type transfected into HeLa cells

Test system: HeLa cells
Assay: TIRF imaging of PM localization of EGFP-Smad2
Assay type: cell-based
Conditions: for PM localization after TGF-β stimulation: HeLa cells with endogenous Smad2 suppressed
Procedure: Figure 4 Quantitative imaging analyses of spatiotemporal dynamics of Smad2.A, TIRF images of mouse EGFP-Smad2-WT transfected into HeLa cells whose endogenous Smad2 is suppressed by siRNA. Images were taken before and 5 min after TGF-β stimulation (10 ng/ml) with and without PI(4,5)P2 depletion. A pseudo-coloring scheme was used with orange and blue representing the highest and the lowest intensity, respectively. B, kinetics of TGF-β stimulated (10 ng/ml) PM localization of EGFP-Smad2-WT (blue), -K420A (green), and -W422A (orange) transfected into HeLa cells the endogenous Smad2 of which was suppressed by siRNA. For EGFP-Smad2-WT, the effect of PI(4,5)P2 depletion (black) and TβRI inhibition by SB-431542 (10 μM for 36 h) (red) were measured. Data points indicate average ±S.D. (n = 10 cells). C, spatially resolved PM PI(4,5)P2 concentration ([PI(4,5)P2]) profiles calculated from two-channel cross-sectional images of HeLa cells (before and 5 min after 10 ng/ml TGF-β stimulation and after PI(4,5)P2 depletion). Each cell is a representative of more than ten cells analyzed. Spatially averaged [PI(4,5)P2] values for each cell type are shown. The z-axis scale indicates [PI(4,5)P2] in mol%. A pseudo-coloring scheme with red and blue representing the highest (1.5 mol%) and the lowest (0 mol%) concentration, respectively, is used to illustrate the spatial [PI(4,5)P2] heterogeneity. Scale bars indicate 10 μm. D, dual color single-molecule tracking of EGFP-PLCδ-PH and SNAP-TMR-labeled TβRI at the PM of HeLa cells. Time courses of the half-life of colocalization for SNAP-TMR-labeled TβRI and EGFP-PLCδ-PH after 10 ng/ml TGF-β stimulation were determined with (orange) and without (blue) PI(4,5)P2 depletion. Data points indicate average ±S.D. (n = 10 cells). E, time courses of the half-life of colocalization for SNAP-TMR-labeled TβRI and EGFP-Smad2 determined by dual color single-molecule tracking analysis. Colocalization of TβRI with EGFP-Smad2-WT (blue), -K420A (green), -W422A (orange), E425K (red), Y426A (cyan), and -R427A/R428A (black) transfected into HeLa cells whose endogenous Smad2 was suppressed by siRNA is shown. For EGFP-Smad2-WT, the effect of PI(4,5)P2 depletion (purple) was measured. Data points indicate average ±S.D. (n = 10 cells). […] TEXT PRINTED IN THE PICTURE: (C) PI(4,5)P2: [PI(4,5)P2] = 1.05 ± 0.20 mol% (HeLa unstimulated); [PI(4,5)P2] = 1.00 ± 0.40 mol% (HeLa 5 min after TGFβ); [PI(4,5)P2] = 0.16 ± 0.08 mol% (HeLa After PI(4,5)P2 depletion) DOUBTS OF THE COPYIST ABOUT THIS PICTURE: Panel C: the printed values are measured membrane concentrations of PI(4,5)P2 in HeLa cells under three conditions, not an activity or property of a compound; it is uncertain whether they count as a result for a substance
Quantitative TIRF microscopy imaging of PM localization of EGFP tagged Smad2 WT and mutants was performed using custom-built internal reflection fluorescence microscope. WT HeLa cells or PI(4,5)P2 depleted HeLa cells were plated on the 8-well chambered cover glass (Lab-Tek, Thermo Fisher Scientific) at the density of 1 × 10^5 for 24 h. Endogenous Smad2 was suppressed using SiRNA and EGFP-Smad2 or mutants were transfected into cells using the jetPRIME system (Polyplus-transfection) according to the manufacturer's protocols. The transfected HeLa cells were serum starved for 16 h prior imaging. PM-bound EGFP-Smad2 fraction was monitored before and after stimulation with 10 ng/ml TGF-β up to 15 min. For EGFP-Smad2 WT, the effect of TβRI inhibition was monitored by incubating cells with 10 μM of SB-431542 for 36 h. Image analysis was performed using Image J software. Mean intensity of the EGFP-Smad2 signal was calculated for each time point, and final graph was plot by subtracting the mean intensity at 0 min from the mean intensity of each time point. More than ten cells were analyzed for each data point.

Row | Molecule | PM localization after TGF-β stimulation (10 ng/ml TGF-β) | time of peak PM translocation after TGF-β stimulation (HeLa cells, 10 ng/ml TGF-β) | PM translocation after PI(4,5)P2 depletion (HeLa cells, rapamycin-induced Inp54 recruitment) | PM residence / dissociation of Smad2 (HeLa cells, 10 ng/ml TGF-β, SB-431542 10 μM for 36 h where used)
1 | B1 | little PM localization | – | – | –
2 | B2 | – | 5 min | abrogated | –
3 | B3 | able to migrate to the PM as fast as WT | – | – | slow dissociation
4 | B4 | clearly visible | – | – | –
